Laboratory results as given in a protein production outcome set (Wang et al. 2014).

Test: label from the status in PepcDB records

## MDDSYMMVPMRRKRSQCDLAQMVQAIEEYDGSTQCEIDIDECASHPCKNGATCIDQPGNYFCQCVPPFKVFNFDGISSTSVQEFYHCEFGPCKASDSCENGAVRGEKMDLEMFPLEFRCQCASFSGPRCEINVNECSSSPCLHGYCYDMVDGFSCLCNPGYVGIRCEQDIDDCILNACEHNSTCKDLHLSYQCVCLSDWEGNFCEQESNECKMNPCKNNSTCTDLYKSYRCECTSGWTGQNCSEEINECDSDPCMNGGLCHESTIPGQFVCLCPPLYTGQFCHQRYNLCDLLHNPCRNNSTCLALVDANQHCICREEFEGKNCEIDVKDCLFLSCQDYGDCEDMVNNFRPGFSGSLCEIEINECSSEPCKNNGTCVDLTNRFFCNCEPEYHGPFCELDVNKCKISPCLDEENCVYRTDGYNCLCAPGYTGINCEINLDECLSEPCLHDGVCIDGINHYTCDCKSGFFGTHCETNANDCLSNPCLHGRCTELINEYPCSCDADGTSTQCKIKINDCTSIPCMNEGFCQKSAHGFTCICPRGYTGAYCEKSIDNCAEPELNSVICLNGGICVDGPGHTFDCRKACLYNCDNAKTRQESKELNKQQD
  protein production: failed

## MDEAYKMRCDWYHHGELVSGGESESKFSQLNDEVVELYQAAEYLDEEFAGMVHLGEIVERDDKKEDEFLAKLADAETPLYPSCFNHSKLSAIMSLFTLKTKNGWSDKSHNDLLETLPEMLLEDNVLHSSLYEVKKFLKSFDMG
  protein production: failed

## MDEGCVIAFLVWVDNGECILERQSAPDELNLFDIILVAKEQWRLLLAVPLLLAVLAAGISLAMPDQYTAKALVNIPAPVGAAGGVNIVQSTSLLEQAVEKFQLQRYYAVEDNRSALLALSNVVKTTAGKDGLLEISATDRNAEQAARLGNYLADLTRQHILDGNLTEQSKRYFVLQKRLDVESEQVSQLSRKVAQLVPDQEAALGGEGMQLISGFATLEAQLAFQNVQAAGNSGAVSNLQSSVMQLRASLELANPKVRQMSNEQLAGLRDLYFHRALAAELQRQVSLAKSLADQDVQIVLKASAPLEKSGPKRTLIVLLAGLVGLMLAIALIVCKRQWRELSNRFAKNTAA
  protein production: failed

## MDEGRRINIPKIGAVKCKFHRLLEGTPKTLQIVLDVNEWYAVYTCEVPVQPLPETGSTVGVDVGTRYFAITSDGEFVHNPRHLGSALKKLRVQQRTVSRRKKGGNRRRKAVGQVAKTHRKIRRSRQDFHHKVAVKLVRENDLIAHEDLRVSNVVKSNLARSISDVGWSAFFDILRGKAESAGRVVVRVPPQYTSQRCHACGHTCRENRNNEVFKCVSCGHEDHADWNAAKNILGRAVPSGVNGSGVSHAVA
  protein production: failed

## MDEILTNTATPEVGGVAQLSPSAARTKARIALAVMLVPLFGTLEAIRLWFTGQVHALDFILFAVFYAVQMFGVSMGYHRYLAHRAFKTSRLMSSLMLIAGCMAAQGPILFWVTTHRRHHTYSDQHGDPHSPNLMGQSRWQRAKGLWHAHMPWMLAPDMSSWNFFAPDILRDRRLFFYNQTYLFWVALGVILPGVIGGLVSQSWSGAWSGLIFGGLARIFVANQAAWCVGSICHRYGARPFVTHDQSTNNWIVAFLTFGEGLQNNHHAFPAWYRHGVHWWEPDLSGWTLALMGKLRLVSDLRSPSQAMIDKVRKRQASS
  protein production: failed

## MDEKEKNLNENSENESTPKREVEDTLHTPESAQPVQETPIVEGVTPEGEKFAGATEDAAEASSTNAFFEEASNKESEPARPAPGPRRAGTTGGGAVPPNRVNNGGSGNGNGEPPKRGKHFIGYFLTALIGVIIGGLIIFFVAWDNGDNADTTSNSNNKATKVEKVSVDTTSDVTKAVDKVQDAVVSVLNYQSSSSLDGTTTSEQEASSGSGVIYKKANGKAYIVTNNHVVADANKLEVTFTNGKKSEAKLLGTDEWNDLAVLEIDDKNVTTVAAFGDSDSLKLGEPAIAIGSPLGTEFSGSVTQGIISGLNRAVPVDTNGDGTEDWEADVIQTDAAINPGNSGGALINIEGQVIGINSMKISMENVEGISFAIPSNTVEPIIEQLETKGEVERPSLGVSLRDVDTIPETQQKNILKLPDSVDYGAMVQQVVSGSAADKAGLKQYDVIVELNGQKVTNSMTLRKILYGNDVKIGDKVKVKYYRDGKEKSTDIKLEAAKTTT
  protein production: failed

## MDELELRIRKAEKLVQDAKKEFEMGLYERCCSTAYYAMFHAAKAMLLGYGRDSKTHRGTIYLIWECREELGLSDDDCSKLSRAFDLREESDYGIYKEVSKDLAIKILKDAEIFVQKAKNAVNKNR
  protein production: not failed

## MDELKLYTYIAVFSTFALYFAIAWWARAGSTSDFYVAGGGITPMQNGMAIGADWMSAASFISMAGLIAFLGYGGSVFLMGWTGGYVLLAMLLAPYMRKHGKFTVPEFIFDRYYSKTARIVAVACLIIASLTYIIGQMKGVGVAFSRFLEVDYGLGLGIGMFVVWVYAVLGGMKGITYTQIAQYVVMIFAYTIPAIFISLQLTGNPIPQLGLGSTLADGSGVYLLDKLDMVVTDLGFKEYTTSNLGGTLNMFAYTISLMIGTAGLPHVIMRFFTVPSVQAARQSAGYALVFIGLLYTVAPAVGAMARLNLMNTIEPTAGQNLVYDERPQWFKDWEKTGLLKFEDKNGDGKIQYTSNATDQTVTKINTMTGKEIVVVPNEMVKVDRDIMVLANPAIANLPNWVIALVAAGGLAAALSTAAGLLLAISSSISHDLMKGVLTPDLSEKNELLAGRVVMTIAILVSGYLGLHPPGFAAGTVALAFGLAASSIFPALMMGIFSKKMSGTAAISGMVAGIGVTMMYVFQHKGIMFIPGTSFLGDMGKDWFFGISPNAFGAVGAIVNFGVAFIVLQFTGPCPANIVAMVENMRAPGDCAAAHDH
  protein production: failed

## MDELRQKLQYSSFELEAVKAKANEETKLHQEEVKNLLHLLKLARQERDEAKDQLQKLLTIKTNSSITESNSHGSSPVDSFFEPVSSSEFSNFNMVPEPINQVKFKNRQQLVNRNLKKIDPVDALMDEIIKGKALPEKGKLLQTVMESGPLLQTLLVAGPLPRWRNPPPLQQSFRVPPISNSYGCLPATTTTSMLNFRGCSVPRIATGIEVATKRQRFH
  protein production: failed

## MDEMRPPPRSRTIYLLPNLFTTAGLFSGFYAIIAAANGQFVQAAMAVFVAAVMDGLDGRVARLTNTSSEFGVQYDSLADLVSFGMAPALVMYHWSLSALKYDSSVMGRVGWSAAFLYAACAALRLARFNTQVGVVDKRWFIGLASPAAAGLMMSFVWAFADDSLGFDGEQLRYVALAVTVVSALLMVSRIRFWSFKGGARGPRADRVPFLALAIATVVIALLVIDLARSLLVIGVLYALSGPLMWLWRRWRRVPELP
  protein production: failed

## MDEQAVSTSMKTVYIRIYTSVLYTSYTKPGNWSAVDRSAWSVSCSNVYADDDAKYGAHLAIDGEINTTWFTWGVANAGECWWNTVLDRPVTLTGFSVTKQSAYGSGYNLRSAEIKVRKEGETEWVTYPRVLTFRNFKGADPQYAAIEPPIPNVKEFRINCLTPDNYTGFAEINLYVKQLEHHHHHH
  protein production: not failed

## MDESKKISLGQFFTPTHIVKYMIGLMTKNKNASILEPSSGNGVFLDSLIQLGYTNLTSYEIDGDIISHPFVINSSFITSYDKPQYDSIIGNPPYVRWKNLSELQKKELKDNSIWKMYCNSLCDYFYIFIIKSILQLKVGGELIFICPDYFFSTKNAEGLRKFLINNGSFEKIILFNESKVFHGVSSSVVIFKYIKGKNIDNINIINIDSKSPIKSEDIE
  protein production: failed

## MDEVLLVKKLVEDAIVPTRGSKCAAGIDLYSNTNFIIQPHERFLVSTGVSVQIPHQCYGRIAPRSSLALKYGIDVGAGVIDEDYRGEIKVILFNHSNEIFNGRKGDRIAQLIIERISYCRISEVKELNTTDRGTNGFGSTGK
  protein production: not failed

## MDEYEDSQSPAPSYQYPKETLRKRQNSVQNSGGSVSSRFSRKSFKLDYRLEEDVTKSKKGKDGRFVNPWPTWKNISIPNVLRWLIMEKNHSGVPGSKEELDKELPVLKPYFVSDPEDAGVREAGLRVTWLGHATLMVEMDELIFLTDPMFSSRASPSQYMGPKRFRRPPCTISELPTIDAVLISHNHYDHLDYGSVLALNERFGSELRWFVPLGLLDWMQKCGCENVIELDWWEENCVPGHDKVTFVFTPSQHWCKRTLLDDNKVLWGSWSVLGPWSRFFFAGDTGYCPAFEEIGKRFGPFDLAAIPIGAYEPRWFMKYQHADPEDAVRIHIDLQTKRSVAIHWGTFALANEHYLEPPVKLNEALERYGLSCEDFFILKHGESRYLNTDDRAFEET
  protein production: failed

## MDFFAIDPIGLPHTSLIFYLSSLLIALLLVFLTFQAYRLKSHRYFFLFLQLSQVIGLYTWYVLRGFPLDEALPLYHCRIAMLAIFFLPDRNKFKQLFMVLGIGGTFLALLSPDLYPFRLWHVANVSFYFGHYALLVNGLIYLLRFYDASQLRLLSVVRYLATVNFLLLLVSLATKGNYGFVMDIPVIHTRHLLLNFVIVTSGLTFMVKITEYFYLKFGEAQQLALAFSKEK
  protein production: failed
